In US6410239B1, “Identification and comparison of protein—protein interactions that occur in populations and identification of inhibitors of these interactors” (CuraGen Corporation, priority 1996, dated 2002):

What was measured:
VEGF = target: T1, VEGF (Homo sapiens, UniProt P15692); conditions: cited from earlier work
T1 sequence (P15692 207-395): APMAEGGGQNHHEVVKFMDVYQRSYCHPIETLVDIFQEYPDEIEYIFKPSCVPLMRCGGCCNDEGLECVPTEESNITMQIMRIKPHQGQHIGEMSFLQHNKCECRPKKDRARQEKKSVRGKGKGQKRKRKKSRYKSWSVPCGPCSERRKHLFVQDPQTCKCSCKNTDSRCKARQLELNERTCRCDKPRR

[1] = target: T2, YULH(R4-GBD) and N106′ (FKBP-12-GAD) interacting hybrid proteins (Homo sapiens, UniProt P62942); test: 5-FOA assay identifying cells containing a non-genetically-encoded inhibitor of protein-protein interaction; assay type: cell-based, yeast
T2 construct: These primers flank the entire coding region of the FKBP-12 protein; expressed in transfected cells; host or cells: Saccharomyces cerevisiae YULH(R4-GBD) x N106'(FKBP-12-GAD)
Procedure: The above method described for the isolation of inhibitor peptides can also be used to screen and isolate inhibitors that are not genetically encoded. In other contexts, for example, a yeast-based transcription-inhibition assay has been used to screen for inhibitors of the HIV-1 proteinase (Murray et al., 1993, Gene 134:123-128). The reporter strains YULH(R4-GBD) and N106′ (FKBP-12-GAD), that harbor the reporter gene-systems and the two interacting proteins are grown in a 96-well format with each well containing 200 μl of media that selects for both the GBD and GAD plasmids (SC-LEU-TRP).
After a growth period (24-36 hours) that is sufficient for early log-phase growth (a cell density of 1×10^7 cells/ml), the cells are exposed to an RNA inhibitor at a concentration of 100 nM for 1-2 hours. This RNA inhibitor is of the sequence 5′-[…]-3′ (SEQ ID NO:35). The pyrimidines in this RNA are modified with 2′-amino-2-deoxypyrimidines that causes the RNA to be resistant to nucleases. This RNA binds with high affinity to VEGF (Green et al., 1995, Current Biol. 2:683-695). […]
In the absence of the RNA inhibitor, cells are not able to grow in 5-FOA. […] The activity of the lacZ gene is determined by assaying the β-galactosidase activity of the cells as mentioned in Section 6.1.11. […]

[2] = target: T3, interaction between the RAF-GAD and RAS-GBD proteins (Homo sapiens, UniProt P04049); test: Peptide expressed from pPEV1 tested for inhibition of the RAS-RAF interaction in yeast mating two-hybrid assay; assay type: cell-based
T3 construct: expressed in transfected cells; host or cells: Saccharomyces cerevisiae diploids of YULH-RAFINT (RAF-GAD integrated at MER2) x N106' (RAS-GBD plasmid)
Source text: These oligonucleotides also introduced unique restriction sites (EagI and SphI) that facilitate the cloning of the amplified DNA fragments into the integration vector R1400. The R1400 plasmid vector consists of two yeast genes LYS2 (Fleig et al., 1986, Gene 46:237-245) and MER2 (Engebrecht et al., 1991, Cell 66:1257-1268). The LYS2 marker is used for the selection of integration events, while, the MER2 gene is used for integration of the entire plasmid into the yeast genome. MER2 is a gene that is not essential for the vegetative growth of yeast. The RAF-GAD gene was cloned into the R1400 plasmid to yield RAF-INT. This plasmid was then digested with the restriction enzyme PstI that has a site in the MER2 gene. The restriction was done in a partial manner as there are other PstI sites in the plasmid vector. The restriction digestion was allowed to proceed only for 1 minute and then the enzyme was inactivated by extracting with phenol-chloroform and the DNA was then precipitated. This linearized DNA was used to transform the YULH strain to yield YULH-RAFINT. Integration occurs at the MER2 locus, and the integration events were selected by growing the transformants on media lacking lysine. The N106′ strain was transformed with the RAS-GBD plasmid to form N106′ (RAS-GBD). The proper functioning of the RAF-GAD fusion was confirmed by mating YULH-RAFINT and N106′ (RAS-GBD) and observing the resultant activation of the URA3 and the lacZ Reporter Genes.
The PEVs serve to express and localize peptides (or proteins) in the nucleus of the yeast cell where their potential to inhibit specific protein-protein interactions is tested. This inhibitory activity of the peptides is monitored by their ability to inhibit the activity of the reporter genes like URA3, HIS3 and lacZ.
The PEVs comprise the following operably linked components (FIG. 7): an ADC1 promoter (ADC1-P) for supporting transcription in yeast (Ammerer, 1983, Meth. Enymol. 101:192-201); a nucleotide sequence encoding an SV40 Nuclear Localization Signal (NLS) for transporting the peptide to the nucleus (Dingwal and Laskey, 1991, Trends. Biochem. Sci. 16:478); followed by a stop codon (UAG) for terminating translation; means for inserting a DNA sequence encoding a candidate inhibitor peptide into the PEV in such a manner that the candidate inhibitor peptide is capable of being expressed as part of a fusion protein containing the NLS; and an ADC1 transcription termination signal. The NLS from SV40 large T comprises a 7 amino acid stretch (PKKKRKV) (SEQ ID NO:20) that has been successfully used in targeting proteins into the yeast nucleus (Benton et al., 1990, Mol. Cell. Biol. 10:353-360). […]

T2 sequence (P62942 whole entry): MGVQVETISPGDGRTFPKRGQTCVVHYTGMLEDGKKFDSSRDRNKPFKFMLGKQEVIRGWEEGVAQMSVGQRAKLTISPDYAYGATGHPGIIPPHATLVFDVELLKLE

5′-CCCUGAUGGUAGACCGGGGUG-3′ (chemistry not fully specified) [RNA inhibitor]
binding affinity to VEGF (VEGF): high affinity
growth in SC-TRP-LEU in the absence of 5-FOA, in the presence of the inhibitor ([1]; RNA inhibitor at 100 nM): able to grow
growth in media containing 5-FOA and uracil ([1]; RNA inhibitor at 100 nanomolar, without inhibitor cells are not able to grow in 5-FOA): Growth is evident

RAS effector peptide: RAS amino acids 17-40, from a region important for interaction with RAF, expressed from pPEVRAS-E (SALTIQLIQNHFVDEYDPTIEDSY; UniProt P01112 17-40, looked up, fragment)
β-galactosidase activity (lacZ reporter) of diploids ([2]; YULH2RAS (pPEVRAS-E) mated to N106′(RAS-GBD), control diploids are LACZ+): negative for β-galactosidase activity
growth of diploids on media lacking uracil (URA3 reporter) ([2]; YULH2RAS (pPEVRAS-E) mated to N106′(RAS-GBD), control diploids are URA+): unable to grow on media lacking uracil
growth of diploids on medium containing 5-FOA ([2]; YULH2RAS (pPEVRAS-E) mated to N106′(RAS-GBD), control diploids unable to grow): grow on medium containing 5-FOA
inhibition of the protein-protein interaction ([2]; peptide expressed in the yeast nucleus from pPEV1): inhibits the interaction
